Assay results published in article PMC7474647 (Proceedings of the National Academy of Sciences of the …, 2020).

Target: the molecule itself
Assay: ABEL trap-based single-molecule diffusometry

B1: alkaline phosphatase from bovine intestinal mucosa, labeled with JF646 (enzyme, UniProt P19111 20-506, looked up)
chain: LVPVEEEDPAFWNRQAAQALDVAKKLQPIQTAAKNVILFLGDGMGVPTVTATRILKGQMNGKLGPETPLAMDQFPYVALSKTYNVDRQVPDSAGTATAYLCGVKGNYRTIGVSAAARYNQCKTTRGNEVTSVMNRAKKAGKSVGVVTTTRVQHASPAGAYAHTVNRNWYSDADLPADAQMNGCQDIAAQLVNNMDIDVILGGGRKYMFPVGTPDPEYPDDASVNGVRKRKQNLVQAWQAKHQGAQYVWNRTALLQAADDSSVTHLMGLFEPADMKYNVQQDHTKDPTLQEMTEVALRVVSRNPRGFYLFVEGGRIDHGHHDDKAYMALTEAGMFDNAIAKANELTSELDTLILVTADHSHVFSFGGYTLRGTSIFGLAPSKALDSKSYTSILYGNGPGYALGGGSRPDVNDSTSEDPSYQQQAAVPQASETHGGEDVAVFARGPQAHLVHGVEEETFVAHIMAFAGCVEPYTDCNLPAPTTATSIPD
modifications: JF646 dye, attached by amine-NHS chemistry (nonspecific labeling; one or two dyes per molecule seen)
  stoichiometry N: 2
